The record followed here is patent publication US20230107034A1.

Like-named read-outs stand apart in the source and are kept apart here.

Common to all, as to experiment: SPR
(In general: SPR reads the build-up and loss of mass on a sensor chip optically.)

Assay [1] addresses Ab 1-42 (UniProt P05067).
For assay [2], the target named is Ab 1-42 (UniProt P05067). The source holds these as a separate data set.
In assay [3] the target is monomer (UniProt P05067).
In assay [4] the target is PFs (AB 1-42 proto) (UniProt P05067).
Chain of PFs (AB 1-42 proto) (P05067 672-713): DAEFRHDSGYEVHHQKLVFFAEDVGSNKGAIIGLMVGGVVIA

Chain of Ab 1-42 (P05067 672-713): as above
Chain of monomer (P05067 672-713): as above

In the case of BAPI, the figures for the koff in assay [1] and in assay [2] were 0.000505 s⁻¹ and 0.000426 s⁻¹, respectively.

As to Aducanumab, the off-rate (koff) (commonly a measure of how fast the partners let go of each other) in assay [3] stood at 0.718 s⁻¹; in assay [4], 0.000144 s⁻¹.
